± gives the standard deviation of the averaged measurements.
Tested on: ATP
Assay: switch fluorescence ratio, 500 uM ATP over buffer (Cy3 cluster intensity, sum of 5 cycles each) (fold (ratio)); higher = stronger signal-on switching upon ATP binding; sequences stand for … in TCGTCGGCAGCGTCAGATGTGTATAAGAGACAGTTTTTTTTTTTTTTTTTTTTTTTTT…TC
Conditions: aptamer strand: ATP DNA aptamer (quencher-CACCTGGGGGAGTATTGCGGAGGAAGG + anchor), 100 nM annealed; ATP concentration: 500 uM
How it was run: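 Imaging in selection buffer was followed by imaging after 15 min with 500 uM ATP at 22 °C, for Cy3-labelled switching-strand clusters annealed to 100 nM quencher-labelled ATP aptamer on a modified Illumina MiSeq flow-cell. Five of these buffer/ATP cycles ran, separated by NaOH stripping and re-annealing. The fluorescence ratio per cluster is summed target-cycle over summed buffer-cycle Cy3 intensity, averaged per switch-domain sequence; clusters outside 100-1000 RFU were removed.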
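Note: ATP exposure 15 min at 22 °C before imaging.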

## GATCAGTTTT
  switch fluorescence ratio: 0.977 ± 0.016

## TTTTAACGGG
  switch fluorescence ratio: 0.998 ± 0.027

## CTGCTTTGTC
  switch fluorescence ratio: 0.941 ± 0.0058

## GGGCCATGGT
  switch fluorescence ratio: 0.9815 ± 0.0072

## AGAGGAGGGG
  switch fluorescence ratio: 1.01 ± 0.042

## TAATGCGTTT
  switch fluorescence ratio: 0.98 ± 0.0039

## GTGGATACTA
  switch fluorescence ratio: 1.009 ± 0.0047

## TTATACGGTT
  switch fluorescence ratio: 1.01 ± 0.012

## TTTGGTCGGA
  switch fluorescence ratio: 1.019 ± 0.0039

## TATGGGCGCG
  switch fluorescence ratio: 1.11 ± 0.23

## AAATAGTGGG
  switch fluorescence ratio: 0.986 ± 0.026

## TATTGACGGG
  switch fluorescence ratio: 0.9956 ± 0.0023

## TGGTATGTCA
  switch fluorescence ratio: 0.9913 ± 0.0059

## ACTCTGGGGT
  switch fluorescence ratio: 1.03 ± 0.015

## TTGAAGCGGA
  switch fluorescence ratio: 1.03 ± 0.03

## GGGGGACCCA
  switch fluorescence ratio: 0.982 ± 0.06

## CATATGCGTA
  switch fluorescence ratio: 0.9857 ± 0.0015

## CGATAACATG
  switch fluorescence ratio: 0.9984 ± 0.0051

## CGGGCTTTGG
  switch fluorescence ratio: 1.01 ± 0.035

## TAATGAGTTA
  switch fluorescence ratio: 0.9658 ± 0.0012

## ATTTTCGTTG
  switch fluorescence ratio: 0.9666 ± 0.0095

## ACTCGCTGGG
  switch fluorescence ratio: 1.11 ± 0.018

## ATTTGTGCAG
  switch fluorescence ratio: 0.954 ± 0.013

## TTGGATGAGG
  switch fluorescence ratio: 0.973 ± 0.048

## AATTTGACAT
  switch fluorescence ratio: 1.03 ± 0.02

## TAAGTAGAG
  switch fluorescence ratio: 0.9824 ± 0.0097

## TGCCCTTCAT
  switch fluorescence ratio: 1.04 ± 0.011

## TTTGGGTAAT
  switch fluorescence ratio: 1.21 ± 0.39

## AAAGTTGGCT
  switch fluorescence ratio: 1.02 ± 0.046

## AGGGGGGTTG
  switch fluorescence ratio: 1 ± 0.032

## AAAATGTAGA
  switch fluorescence ratio: 0.9919 ± 0.0016

## ATGTCGACTA
  switch fluorescence ratio: 1.02 ± 0.021

## GGTGGGGGTT
  switch fluorescence ratio: 0.999 ± 0.036

## GTCGGGTTTG
  switch fluorescence ratio: 0.991 ± 0.014

## AAAACAAGGG
  switch fluorescence ratio: 1.01 ± 0.012

## GTTAATATAA
  switch fluorescence ratio: 0.9971 ± 0.003

## TCGTAACACT
  switch fluorescence ratio: 1.16 ± 0.0057

## GATGAACGTT
  switch fluorescence ratio: 0.984 ± 0.041

## AACGGGGTCT
  switch fluorescence ratio: 0.978 ± 0.011

## AGATAGAGTA
  switch fluorescence ratio: 1.006 ± 0.0033

## GGATGTCTAG
  switch fluorescence ratio: 0.9885 ± 0.0037

## CGTAGGTTTT
  switch fluorescence ratio: 1 ± 0.067

## TGATCACACG
  switch fluorescence ratio: 1.024 ± 0.01

## CCATGTTTGG
  switch fluorescence ratio: 0.996 ± 0.028

## AGTTTTTATT
  switch fluorescence ratio: 1.03 ± 0.015

## TGTAGGTGTT
  switch fluorescence ratio: 0.999 ± 0.077

## AGATATGGTG
  switch fluorescence ratio: 1.01 ± 0.089

## GGAGGCTAGC
  switch fluorescence ratio: 1.01 ± 0.054

## AGATATAGCG
  switch fluorescence ratio: 1.029 ± 0.0076

## CAGATTGAAT
  switch fluorescence ratio: 0.982 ± 0.024

## ATATGTGTTG
  switch fluorescence ratio: 0.992 ± 0.0066

## GCAACTATT
  switch fluorescence ratio: 2.42 ± 2

## TTGTGGTTGG
  switch fluorescence ratio: 0.994 ± 0.021

## CTTGATGCAG
  switch fluorescence ratio: 0.996 ± 0.053

## ATACTGGTAG
  switch fluorescence ratio: 1.02 ± 0.047

## AGGCAAACCC
  switch fluorescence ratio: 1.0669 ± 0.00051

## CTGAAATGGT
  switch fluorescence ratio: 0.9928 ± 0.0041

## GATTACATTT
  switch fluorescence ratio: 1.03 ± 0.022

## GAGTGTTAGG
  switch fluorescence ratio: 0.996 ± 0.013

## AGGGTCGGAA
  switch fluorescence ratio: 1.02 ± 0.018

## TGTTATATAG
  switch fluorescence ratio: 1.01 ± 0.033

## TCACGCTTTT
  switch fluorescence ratio: 1.11 ± 0.12

## TAGGGGGGCC
  switch fluorescence ratio: 0.9669 ± 0.0015

## TAGTGAAGTC
  switch fluorescence ratio: 1.02 ± 0.073

## GGCTAAGGTT
  switch fluorescence ratio: 0.997 ± 0.015

## CTTATGAGCA
  switch fluorescence ratio: 1.038 ± 0.0023

## GGTTTGGATC
  switch fluorescence ratio: 1.02 ± 0.018

## TTATGGAAGA
  switch fluorescence ratio: 0.98 ± 0.026

## CGTAAAATAC
  switch fluorescence ratio: 2.85 ± 0.056

## TATGAGAGCC
  switch fluorescence ratio: 1.02 ± 0.026

## ATCGAGGGGA
  switch fluorescence ratio: 0.978 ± 0.019

## TGTATGATGG
  switch fluorescence ratio: 1.02 ± 0.031

## ATATTCGATT
  switch fluorescence ratio: 0.999 ± 0.027

## ATTAGATGTT
  switch fluorescence ratio: 0.9635 ± 0.0029

## ACCCCGGGCA
  switch fluorescence ratio: 1.08 ± 0.018

## CTTTTATTTT
  switch fluorescence ratio: 1.03 ± 0.012

## TTACGAGGCG
  switch fluorescence ratio: 1.004 ± 0.0032

## TGTTCTTTTT
  switch fluorescence ratio: 0.993 ± 0.038

## GAGCTGTGGG
  switch fluorescence ratio: 0.971 ± 0.039

## CATGCACTAT
  switch fluorescence ratio: 1.08 ± 0.021

## TTTTAAGCTA
  switch fluorescence ratio: 1.12 ± 0.2

## TGGGGGTAAT
  switch fluorescence ratio: 0.992 ± 0.029

## TCGTGTGGGG
  switch fluorescence ratio: 1.02 ± 0.048

## TCTTACAATA
  switch fluorescence ratio: 1.14 ± 0.091

## TCAATTGGGA
  switch fluorescence ratio: 0.983 ± 0.055

## TTTTCATTTT
  switch fluorescence ratio: 1.05 ± 0.11

## TTTGTTGTTA
  switch fluorescence ratio: 0.994 ± 0.031

## AAAATGAGCC
  switch fluorescence ratio: 1.036 ± 0.00036

## GCGCCAGTTT
  switch fluorescence ratio: 0.992 ± 0.02

## CATTTGATCC
  switch fluorescence ratio: 0.978 ± 0.0026

## TAATTGGACG
  switch fluorescence ratio: 1.12 ± 0.062

## GGGGGCAGGA
  switch fluorescence ratio: 0.987 ± 0.017

## TTGGTGCCTT
  switch fluorescence ratio: 1.07 ± 0.033

## AATCAAACAT
  switch fluorescence ratio: 1.03 ± 0.018

## AATTAGTCTA
  switch fluorescence ratio: 1.01 ± 0.03

## TGCGATGAGG
  switch fluorescence ratio: 1.01 ± 0.046

## GATTTTTTTT
  switch fluorescence ratio: 0.989 ± 0.029

## GGATGAAGGA
  switch fluorescence ratio: 0.978 ± 0.038

## GCTTCAGGAG
  switch fluorescence ratio: 1.27 ± 0.024

## AAAAGTCAAT
  switch fluorescence ratio: 1.004 ± 0.0089

## CGGGCTTGGT
  switch fluorescence ratio: 1.01 ± 0.032

## GGCAAATCGG
  switch fluorescence ratio: 0.995 ± 0.014

## TTTTTGGTGG
  switch fluorescence ratio: 1 ± 0.032

## TATCTCCAAT
  switch fluorescence ratio: 1.12 ± 0.052

## ATTGGGGTTG
  switch fluorescence ratio: 1 ± 0.017

## TTGCTACGGA
  switch fluorescence ratio: 1.04 ± 0.013

## TGATTGAAGC
  switch fluorescence ratio: 1.03 ± 0.032

## CATGATAGGT
  switch fluorescence ratio: 0.975 ± 0.057

## ATCGCTTAGG
  switch fluorescence ratio: 1 ± 0.012

## GGGGGGTTAT
  switch fluorescence ratio: 0.993 ± 0.026

## TCAGTACATG
  switch fluorescence ratio: 0.992 ± 0.02

## TGCCCGGTTT
  switch fluorescence ratio: 1.01 ± 0.0077

## CGCCTCAGGT
  switch fluorescence ratio: 1.46 ± 0.14

## ATTGGTTTCG
  switch fluorescence ratio: 0.9835 ± 0.0051

## CGGTAGGACA
  switch fluorescence ratio: 1 ± 0.011

## TTAAGGGCAG
  switch fluorescence ratio: 1.01 ± 0.03

## TTGCGGGATG
  switch fluorescence ratio: 1.04 ± 0.051

## TTAAAAAGGT
  switch fluorescence ratio: 1 ± 0.021

## CGCACCTGAG
  switch fluorescence ratio: 1.23 ± 0.044

## ATGGTATATT
  switch fluorescence ratio: 1 ± 0.033

## TTAAGCCTGT
  switch fluorescence ratio: 0.969 ± 0.021

## AATGGGGTAT
  switch fluorescence ratio: 1.02 ± 0.018

## GGTTTCGTTG
  switch fluorescence ratio: 1 ± 0.046

## TTCGTTATTA
  switch fluorescence ratio: 1.34 ± 0.42

## AGGGCAAGCG
  switch fluorescence ratio: 0.938 ± 0.041

## GATTTATGAC
  switch fluorescence ratio: 1.02 ± 0.038

## ATTTTTTCGA
  switch fluorescence ratio: 0.981 ± 0.014

## AAGTTATCAT
  switch fluorescence ratio: 0.964 ± 0.019

## AACATTGGGG
  switch fluorescence ratio: 1.02 ± 0.024

## GGTTCGTGTC
  switch fluorescence ratio: 0.974 ± 0.016

## TCGTTCGTAT
  switch fluorescence ratio: 0.9875 ± 0.004

## TTTTTCGGTA
  switch fluorescence ratio: 1.05 ± 0.038

## CCGGGCTTAG
  switch fluorescence ratio: 1.28 ± 0.047

## GGATATAGTC
  switch fluorescence ratio: 1 ± 0.036

## GGTTGAGTTC
  switch fluorescence ratio: 0.948 ± 0.036

## TACCTGCCGG
  switch fluorescence ratio: 1.08 ± 0.026

## CTTTGAGGTG
  switch fluorescence ratio: 1.04 ± 0.069

## CGAGGTGTAG
  switch fluorescence ratio: 0.98 ± 0.022

## GTCGTGGCAA
  switch fluorescence ratio: 1.04 ± 0.022

## GATTTGGAGA
  switch fluorescence ratio: 1 ± 0.017

## TGTCCGGGCT
  switch fluorescence ratio: 0.999 ± 0.028

## ATTTGTGAGA
  switch fluorescence ratio: 0.9979 ± 0.0051

## TCCAATTGGA
  switch fluorescence ratio: 0.9855 ± 0.0021

## ATCATTAATG
  switch fluorescence ratio: 1.01 ± 0.014

## TGTCGTTTAC
  switch fluorescence ratio: 1.05 ± 0.021

## TTGCCTAATG
  switch fluorescence ratio: 0.972 ± 0.035

## ACGGCTCAT
  switch fluorescence ratio: 1.01 ± 0.037

## TAAGATGTAT
  switch fluorescence ratio: 0.968 ± 0.031

## TAATTGTGCT
  switch fluorescence ratio: 0.979 ± 0.026

## TAATTGGGAA
  switch fluorescence ratio: 0.997 ± 0.035

## AAAAGGGA
  switch fluorescence ratio: 0.982 ± 0.046

## ATCGGGGGTC
  switch fluorescence ratio: 0.946 ± 0.032

## GGTGAGAGGT
  switch fluorescence ratio: 0.9696 ± 0.0055

## CCTTGTAGGG
  switch fluorescence ratio: 1.02 ± 0.03

## ATATATATGG
  switch fluorescence ratio: 1.03 ± 0.035

## CCTATTATTA
  switch fluorescence ratio: 1.02 ± 0.028

## ACGTGTCGGT
  switch fluorescence ratio: 1.028 ± 0.0037

Reference: the supplement of paper PMC10126150
